Read-outs that look alike come from different tables or passages of the source.
Legend:
Test in all cases: AUC
A6NHR9 [1] = biological target: A6NHR9
A6NHR9 [2] = biological target: A6NHR9; remark: listed apart in the source
A6NHR9 [3] = biological target: A6NHR9; remark: listed apart in the source
AUC = biological target: the molecule itself
A6NHR9 [4] = biological target: A6NHR9; remark: listed apart in the source
A6NHR9 [5] = biological target: A6NHR9; remark: listed apart in the source

B1: UBL-containing SMCHD1 ATPase (residues 25–702) (domain or fragment, human, UniProt A6NHR9 25-702, looked up)
chain: HRTVYLFDRREKESELGDRPLQVGERSDYAGFRACVCQTLGISPEEKFVITTTSRKEITCDNFDETVKDGVTLYLLQSVNQLLLTATKERIDFLPHYDTLVKSGMYEYYASEGQNPLPFALAELIDNSLSATSRNIGVRRIQIKLLFDETQGKPAVAVIDNGRGMTSKQLNNWAVYRLSKFTRQGDFESDHSGYVRPVPVPRSLNSDISYFGVGGKQAVFFVGQSARMISKPADSQDVHELVLSKEDFEKKEKNKEAIYSGYIRNRKPSDSVHITNDDERFLHHLIIEEKEKDSFTAVVITGVQPEHIQYLKNYFHLWTRQLAHIYHYYIHGPKGNEIRTSKEVEPFNNIDIEISMFEKGKVPKIVNLREIQDDMQTLYVNTAADSFEFKAHVEGDGVVEGIIRYHPFLYDRETYPDDPCFPSKLKDEDDEDDCFILEKAARGKRPIFECFWNGRLIPYTSVEDFDWCTPPKKRGLAPIECYNRISGALFTNDKFQVSTNKLTFMDLELKLKDKNTLFTRILNGQEQRMKIDREFALWLKDCHEKYDKQIKFTLFKGVITRPDLPSKKQGPWATYAAIEWDGKIYKAGQLVKTIKTLPLFYGSIVRFFLYGDHDGEVYATGGEVQIAMEPQALYDEVRTVPIAKLDRTVAEKAVKKYVEDEMARLPDRLSVTWPEGDE
Protein B1 has a Monomer (%) (A6NHR9 [1]) of 88.2%, a Monomer (%) (A6NHR9 [2]) of 53.4% and a Monomer (%) (A6NHR9 [3]) of 61.5%. For the same protein, the “stoichiometry N” value (AUC) was 2, the Monomer (%) (A6NHR9 [4]) was 57.6% and the Monomer (%) (A6NHR9 [5]) was 76.8%.

Source: article PMC8286825 (Biochemical Journal, 2021)
